Molecular target: tubulin of PC12 cells (microtubule (MT) fraction, soluble tubulin (ST) fraction or cell lysate) (rat (endogenous in PC12)) (UniProt P68370)
Test: co-IP; MT fraction of PC12 cells, untreated or treated with 100 ng/mL NGF for three days; 100 μL aliquots (~0.25–1 mg/mL) with anti-α tubulin or anti-Gβ for 1 h at 4°C, then protein A-sepharose overnight at 4°C; immunoblot for Gβ or tubulin

fold increase of co-immunoprecipitation in NGF-treated over untreated cells: 2 to 3 fold
Substance: βγ subunit of heterotrimeric G proteins (Gβγ), endogenous in PC12 cells (from UniProt P54311 1-340) (complex)
